Measured values taken from paper doi:10.1101/2022.02.02.478753.

Target: holoTvFDPF3, highly active Class F flavodiiron protein 3 from Trichomonas vaginalis (TVAG_121610) (Trichomonas vaginalis)
Test: cryo-EM structure

“holoTvFDPF3, highly active Class F flavodiiron protein 3 from Trichomonas vaginalis (TVAG_121610) (enzyme)” showed a stoichiometry N of 2.
